Columns and labels:
A549 tumor xenografts = experiment: A549 xenograft tumors with 293-mda-7 cells (mixing and distant implant); assay type: in vivo, nude mice; conditions: 3 days postimplantation of 293-mda-7 cells
Procedure: […] 293 cells and 293-mda-7 cells were first tested for their ability to form tumors. […] No tumors formed at this cell concentration, so subsequent experiments were performed using this cell number. For in vivo mixing experiments, human lung tumor cells (A549) grown to 90% confluency were trypsinized, washed, and resuspended in sterile phosphate-buffered saline at a concentration of 5×10^6/ml. The tumor-cell suspension was mixed with an equal number (5×10^6/ml) of parental 293 cells or with 293-mda-7 cells, gently vortexed, and injected subcutaneously in nude mice (10^6 cells/animal) as described above. Each group comprised of eight animals, and the experiments were done twice. Tumor growth was monitored and measured as described previously (Saeki et al., 2002). At the end of the experiment, animals were euthanized by CO2 inhalation, and tumors were harvested for histopathological analysis, western blot analysis, and for CD31 and TUNEL staining.
To evaluate the systemic effect of sMDA-7 on tumor growth, subcutaneous tumors were established by injecting A549 tumor cells (5×10^6 cells) into the lower right flank of nude mice. […] The effect of sMDA-7 on tumor growth was monitored as described above. […]
Tumor tissues were stained for CD31 and TUNEL as previously described (Saeki et al., 2002). […] Tissue sections were analyzed and quantitated, and the results interpreted in a blind fashion.

HUVEC = experiment: IP-10 and IFN-γ production by ELISA; assay type: cell-based, human; conditions: 10 ng/ml; 48 h period
Procedure: Furthermore, IFN-γ is a potent inducer of IP-10 (Majumder et al., 1998). […] Studies were conducted to determine whether the antiangiogenic activity of sMDA-7 was mediated by IFN-γ or IP-10. HUVEC were seeded in 6-well plates (1×10^5/well) and treated with sMDA-7 (10 ng/ml). Cell culture supernatant was collected at 6 h, 24 h, and 48 h after treatment, centrifuged at 1200 rpm, and analyzed for IP-10 and IFN-γ protein production using commercially available ELISA kits. Assays were performed as recommended by the manufacturer (R&D systems, Minneapolis, Minn.). […] Cells treated with PBS served as negative controls in these experiments. Samples were analyzed in quadruplicate, and data represented as the average value for each concentration of sMDA-7 tested.

B1: sMDA-7: soluble secreted human MDA-7 (IL-24) protein purified from stably transfected 293-mda-7 cells (protein)
chain: AQGQEFHFGPCQVKGVVPQKLWEAFWAVKDTMQAQDNITSARLLQQEVLQNVSDAESCYLVHTLLEFYLKTVFKNYHNRTVEVRTLKSFSTLANNFVLIVSQLQPSQENEMFSIRDSAHRRFLLFRRAFKQLDVEAALTKALGEVDILLTWMQKFYKL
serum level of circulating sMDA-7 by ELISA (A549 tumor xenografts): approximately 50 ng/ml
induced secretion of IFN-γ (HUVEC): < 30 pg/mL
induced secretion of IP-10 (HUVEC): < 32 pg/mL

From US20060134801A1, “Methods and compositions involving MDA-7” (Board of Regents, The University of Texas System, priority 2003, published 2006)
